Here are results for 18 substances from patent publication US20240132578A1.

Where only a bound is given, the exact number is not on record here.

Holding throughout (assay): cell-based or functional assay
Experiment [1] has as its target HIV-1 Env of isolate 92UG046 (HIV-1).
Experiment [2] addresses HIV-1 Env of isolate MGRM-C-019 (subtype C), on pseudovirus (HIV-1).
In experiment [3] the target is HIV-1 Env of isolate MGRM-D-005 (HIV-1).
Experiment [4] deals with HIV-1 Env of isolate MGRM-G-015 (subtype G) (HIV-1).
Experiment [5] deals with HIV-1 92UG005 envelope protein (Env) on pseudovirus (HIV-1).
The target in experiment [6] is HIV-1 92UG024 envelope protein (Env) on pseudovirus (HIV-1).
For experiment [7], the target named is HIV-1 Env of isolate 94KE105 (subtype AC) (HIV-1).
The target of experiment [8] is HIV-1 Env of isolate MGRM-A-012 (subtype A) (HIV-1).
Experiment [9] deals with HIV-1 Env of isolate MGRM-AE-008 (subtype AE) (HIV-1).
For experiment [10], the target named is HIV-1 Env of isolate MGRM-Chronic-B-001 (HIV-1).
The target of experiment [11] is HIV-1 Env of isolate MGRM-D-003 (pseudovirus) (HIV-1).
In experiment [12] the target is HIV-1 Env of isolate MGRM-D-022 (pseudovirus) (HIV-1).
For experiment [13], the target named is HIV-1 Env of isolate MGRM-F1-016 (HIV-1).
The target in experiment [14] is HIV-1 Env of isolate MGRM-F1-023 (HIV-1).
The target in experiment [15] is HIV-1 Env of pseudovirus isolate MGRM-C-010 (clade C) (HIV-1).
Experiment [16] addresses HIV-1 Env of pseudovirus MGRM-D-028 (HIV-1).
Experiment [17] deals with HIV-1 CMU02 Env (HIV-1).
Experiment [18] has as its target HIV-1 Env of isolate MGRM-F1-016 (pseudovirus) (HIV-1).
Experiment [19] deals with HIV-1 NL43 Env (HIV-1).
For experiment [20], the target named is HIV-1 envelope glycoprotein (Env) of isolate 92WR024, subtype A (HIV-1).
For experiment [21], the target named is HIV-1 envelope glycoprotein (Env) of isolate 93UG077, subtype A (HIV-1).
Experiment [22] concerns the target HIV-1 envelope glycoprotein (Env) of isolate MG RM-A-006, subtype A (HIV-1).
Experiment [23] deals with HIV-1 envelope glycoprotein (Env) of isolate MGRM-Chronic-B-001, on pseudovirus (HIV-1).
Experiment [24] addresses HIV-1 envelope glycoprotein (Env) of isolate MGRM-Chronic-B-023, on pseudovirus (HIV-1).
Experiment [25] concerns the target HIV-1 envelope glycoprotein (Env) of isolate QH0692.42, on pseudovirus (HIV-1).
Experiment [26] deals with HIV-1 envelope glycoprotein (Env) of isolate SC422661.8, on pseudovirus (HIV-1).
The target of experiment [27] is aMLV envelope.
In experiment [28] the target is HIV-1 Env of isolate 92TH021 (CRF01_AE) (HIV-1).
Experiment [29] addresses HIV-1 Env of isolate JRCSF (Clade B) (HIV-1) (UniProt P20871).
The target of experiment [30] is HIV-1 Env of isolate MGRM-A-013 (clade A pseudovirus) (HIV-1).
Experiment [31] concerns the target HIV-1 Env of isolate THR0.18 (Acute), clade B (HIV-1).
Experiment [32] deals with HIV-1 Env of pseudovirus MGRM-G-011 (HIV-1).
The target of experiment [33] is HIV-1 IAVI-C18 envelope (Env) on pseudovirus (HIV-1).
For experiment [34], the target named is HIV-1 envelope glycoprotein (Env) of isolate 93IN905 (HIV-1).
The target in experiment [35] is HIV-1 envelope glycoprotein (Env) of isolate LAVI_C3 (HIV-1).
The target in experiment [36] is HIV-1 envelope glycoprotein (Env) of isolate MGRM-C-004 (HIV-1).
Experiment [37] addresses HIV-1 envelope glycoprotein (Env) of isolate MGRM-C-014 (HIV-1).
The target in experiment [38] is HIV-1 JR-CSF Env D417A (HIV-1 (isolate JR-CSF)) (UniProt P20871).
Experiment [39] has as its target HIV-1 JR-CSF Env I420A (HIV-1 (isolate JR-CSF)) (UniProt P20871).

Sequence of 4995_P16 (PGT-145) (antibody) (VH): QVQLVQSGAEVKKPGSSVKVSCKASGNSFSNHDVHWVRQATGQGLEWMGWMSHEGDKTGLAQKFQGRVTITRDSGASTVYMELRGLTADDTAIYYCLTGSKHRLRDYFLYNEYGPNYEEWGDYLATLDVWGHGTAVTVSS
Sequence of 4995_P16 (PGT-145) (antibody) (VL): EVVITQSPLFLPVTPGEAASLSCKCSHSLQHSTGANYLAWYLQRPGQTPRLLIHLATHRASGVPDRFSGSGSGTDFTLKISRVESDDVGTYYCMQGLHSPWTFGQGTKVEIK
Sequence of 5329_C19 (PGT-136) (antibody) (VH): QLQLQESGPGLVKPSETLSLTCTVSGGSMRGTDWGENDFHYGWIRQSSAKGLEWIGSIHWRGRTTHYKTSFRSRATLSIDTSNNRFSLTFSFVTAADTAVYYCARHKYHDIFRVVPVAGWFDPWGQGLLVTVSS
Sequence of 5329_C19 (PGT-136) (antibody) (VL): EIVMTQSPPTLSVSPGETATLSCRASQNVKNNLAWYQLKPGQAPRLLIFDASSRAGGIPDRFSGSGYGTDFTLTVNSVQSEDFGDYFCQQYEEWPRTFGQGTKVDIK
Sequence of 4995_E20 (PGT-142) (antibody) (VH): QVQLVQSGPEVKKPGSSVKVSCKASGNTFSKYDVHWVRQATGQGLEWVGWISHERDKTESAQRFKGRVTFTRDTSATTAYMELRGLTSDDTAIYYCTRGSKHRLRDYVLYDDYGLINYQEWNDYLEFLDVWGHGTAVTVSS
Sequence of 4995_E20 (PGT-142) (antibody) (VL): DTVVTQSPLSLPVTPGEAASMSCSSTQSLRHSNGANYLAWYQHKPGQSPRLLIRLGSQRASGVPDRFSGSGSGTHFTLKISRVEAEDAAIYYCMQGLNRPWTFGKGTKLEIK
Sequence of 4993_K13 (PGT-141) (antibody) (VH): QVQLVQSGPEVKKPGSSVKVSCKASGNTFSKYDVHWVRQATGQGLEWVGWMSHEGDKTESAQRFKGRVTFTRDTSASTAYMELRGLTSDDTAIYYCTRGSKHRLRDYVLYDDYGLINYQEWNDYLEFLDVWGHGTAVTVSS
Sequence of 5345_I01 (PGT-137) (antibody) (VH): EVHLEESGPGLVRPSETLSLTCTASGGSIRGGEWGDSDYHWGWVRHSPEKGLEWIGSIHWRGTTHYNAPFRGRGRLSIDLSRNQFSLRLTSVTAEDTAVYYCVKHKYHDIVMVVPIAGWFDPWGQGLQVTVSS
Sequence of 5345_I01 (PGT-137) (antibody) (VL): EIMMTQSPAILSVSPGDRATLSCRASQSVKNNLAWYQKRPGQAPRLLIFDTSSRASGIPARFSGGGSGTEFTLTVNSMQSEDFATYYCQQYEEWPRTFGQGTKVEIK
Sequence of 4980_N08 (PGT-143) (antibody) (VH): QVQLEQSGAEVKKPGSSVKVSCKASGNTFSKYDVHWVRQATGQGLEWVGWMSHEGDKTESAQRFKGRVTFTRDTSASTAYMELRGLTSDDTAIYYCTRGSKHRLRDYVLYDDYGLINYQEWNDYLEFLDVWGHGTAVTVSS
Sequence of 4980_N08 (PGT-143) (antibody) (VL): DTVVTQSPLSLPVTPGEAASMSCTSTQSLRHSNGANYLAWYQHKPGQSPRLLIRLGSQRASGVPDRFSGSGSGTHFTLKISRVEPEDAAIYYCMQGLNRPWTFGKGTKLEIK
Sequence of 4970_K22 (PGT-144) (antibody) (VH): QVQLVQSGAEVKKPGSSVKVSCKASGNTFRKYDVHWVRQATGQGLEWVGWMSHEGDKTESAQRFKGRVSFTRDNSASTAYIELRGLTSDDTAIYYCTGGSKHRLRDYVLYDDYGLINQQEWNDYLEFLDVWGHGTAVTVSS
Sequence of 4970_K22 (PGT-144) (antibody) (VL): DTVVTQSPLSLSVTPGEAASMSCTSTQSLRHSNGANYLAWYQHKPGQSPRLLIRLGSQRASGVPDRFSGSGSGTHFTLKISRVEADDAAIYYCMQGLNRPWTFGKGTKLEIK

4995_P16 (PGT-145) (antibody): the IC50 (µg/mL), pseudovirus neutralization in experiment [1] is over 50 µg/mL; in experiment [3], 10.4 µg/mL; in experiment [4] it was 10.5 µg/mL. In experiment [2], this substance displayed an IC50, single-round pseudovirus neutralization of 5 ng/mL.
Turning to 4993_K13 (PGT-141) (antibody), the IC50 (µg/mL), pseudovirus neutralization in [1] is over 50 µg/mL; in experiment [3] it was 5.15 µg/mL; in [4], over 50 µg/mL. The IC50, single-round pseudovirus neutralization in experiment [2] was 8 ng/mL.
Turning to 5329_C19 (PGT-136) (antibody), the values for the IC50 (ug/mL), pseudovirus neutralization in [5] and in experiment [6] were over 10 µg/mL and 0.0915 µg/mL, respectively. Also, the IC50, pseudovirus neutralization in experiment [7], in experiment [8], in [9] and in experiment [15] was over 50 µg/mL each time. Also, the IC50 (µg/mL), pseudovirus neutralization in [10], in experiment [11], in [12], in experiment [13] and in experiment [14] was over 50 µg/mL throughout.
For the substance PGT-144 (4970_K22) (antibody), the IC50, pseudovirus neutralization in [16] was over 50 µg/mL.
4877_D15 (PGT-122) (antibody): the IC50 (ug/mL), pseudovirus neutralization in experiment [5] and in [6] was over 10 µg/mL throughout. Moreover, the IC50, pseudovirus neutralization in [17] was over 10 µg/mL; in [19], over 10 µg/mL; in experiment [20], over 50 µg/mL; in experiment [21], 0.084 µg/mL; in [22], over 50 µg/mL; in [23] it was 0.138 µg/mL. Besides, the IC50, pseudovirus neutralization in [24] was 0.01 µg/mL; in [25] it was 0.493 µg/mL; in experiment [26] it was 0.103 µg/mL; in experiment [27], over 10 µg/mL. The IC50 (µg/mL), pseudovirus neutralization in experiment [18] was 4.81 µg/mL.
PGT-142 (4995_E20) (antibody) registered an IC50, pseudovirus neutralization in [16] of over 50 µg/mL.
For 1496_C09 (PG9) (TCN-109) (antibody), the IC50 (ug/mL), pseudovirus neutralization in experiment [6] stood at 1.91 µg/mL. Also, the IC90 (neutralization of pseudovirus) in experiment [28] was 1.99 µg/mL; in [29], under 2.5 ng/mL. Moreover, the Neutralization IC80 in [29] amounted to 0.0181 µg/mL. For the same substance, the Neutralization IC90 in [29] is 0.0391 µg/mL. Besides, in [29], the Neutralization IC95 was found to be 0.0798 µg/mL. The neutralization IC50 in experiment [29] amounted to 4.8 ng/mL; in [33], 0.0535 µg/mL. Also, the IC50 (µg/ml), pseudovirus neutralization in [30] is 0.16 µg/mL; in [31] it was 12.4 µg/mL; in [32], 0.19 µg/mL; in experiment [34], 0.03 µg/mL; in [35], 1.45 µg/mL; in [36], 1.18 µg/mL. For the same substance, in [37], the IC50 (µg/ml), pseudovirus neutralization is 0.64 µg/mL. This substance yielded an IC50 (µg/mL), pseudovirus neutralization in experiment [4] of 6.6 µg/mL. Further, the IC50, pseudovirus neutralization in experiment [19] is 0.687 µg/mL.
Regarding 5141_B17 (PGT-126) (antibody), the IC50 (ug/mL), pseudovirus neutralization in [5] is 0.0181 µg/mL; in experiment [6], over 10 µg/mL. In addition, the IC50, pseudovirus neutralization in experiment [17] is over 10 µg/mL; in experiment [19] it was over 10 µg/mL; in experiment [20], 42 µg/mL; in experiment [21] it was 0.02 µg/mL; in experiment [22], over 50 µg/mL; in [23], over 50 µg/mL. Further, the IC50, pseudovirus neutralization is over 50 µg/mL in experiment [24], 0.048 µg/mL in experiment [25], 0.119 µg/mL in [26] and over 10 µg/mL in experiment [27]. For the same substance, the IC50 (µg/mL), pseudovirus neutralization in experiment [18] was over 50 µg/mL. For the same substance, the Fold IC50 increase relative to wild-type (pseudovirus neutralization) came to 1 fold in experiment [38] and 0.6 fold in [39]. The substance also had a Neutralization IC80 in experiment [34] of 0.0676 µg/mL. Further, in [34], the Neutralization IC90 stood at 0.14 µg/mL. In addition, the Neutralization IC95 in experiment [34] turned out to be 0.275 µg/mL. This substance also showed a neutralization IC50 in [34] of 0.0194 µg/mL.
Consider 4995_E20 (PGT-142) (antibody), for which the IC50 (µg/mL), pseudovirus neutralization was over 50 µg/mL in [1], 1.15 µg/mL in experiment [3] and over 50 µg/mL in experiment [4]. Moreover, the IC50, single-round pseudovirus neutralization in [2] came to 3 ng/mL.
As to PGV04 (antibody), the IC50 (µg/mL), pseudovirus neutralization was determined as 0.171 µg/mL in experiment [14] and 0.333 µg/mL in [4].
As to PGT-145 (4995_P16) (antibody), the IC50, pseudovirus neutralization in experiment [16] was 0.721 µg/mL.
In the case of PGT-143 (4980_N08) (antibody), the IC50, pseudovirus neutralization in experiment [16] is over 50 µg/mL.
Turning to 5345_I01 (PGT-137) (antibody), the IC50, pseudovirus neutralization in experiment [7] is 18.5 µg/mL; in experiment [8], over 50 µg/mL; in experiment [9], over 50 µg/mL; in experiment [15], over 50 µg/mL. Further, the IC50 (µg/mL), pseudovirus neutralization in [10], in experiment [11], in experiment [12], in experiment [13] and in experiment [14] was over 50 µg/mL each time.
For 4970_K22 (PGT-144) (antibody), the IC50 (µg/mL), pseudovirus neutralization was over 50 µg/mL in experiment [1], 14.8 µg/mL in experiment [3] and over 50 µg/mL in experiment [4]. In experiment [2], this substance showed an IC50, single-round pseudovirus neutralization of 513 ng/mL.
On to 4980_N08 (PGT-143) (antibody), for which the IC50 (µg/mL), pseudovirus neutralization in experiment [1] is over 50 µg/mL; in experiment [3] it was 1.41 µg/mL; in experiment [4] it was over 50 µg/mL. The IC50, single-round pseudovirus neutralization in experiment [2] was 4 ng/mL.
PGT-141 (4964_G22; 4993_K13) (antibody) returned an IC50, pseudovirus neutralization in experiment [16] of under 50 µg/mL.
On to 5343_B08 (PGT-135) (antibody), for which the IC50 (ug/mL), pseudovirus neutralization in [5] is over 10 µg/mL; in experiment [6] it was 0.0139 µg/mL. The IC50, pseudovirus neutralization is 0.063 µg/mL in experiment [7], over 50 µg/mL in [8], over 50 µg/mL in [9] and over 50 µg/mL in [15]. Also, the IC50 (µg/mL), pseudovirus neutralization in experiment [10] is over 50 µg/mL; in [11], over 50 µg/mL; in [12], over 50 µg/mL; in experiment [13], over 50 µg/mL; in experiment [14], 0.088 µg/mL. Also, the Fold IC50 increase relative to wild-type (pseudovirus neutralization) in [38] was 5 fold; in experiment [39], 1.4 fold.
4838_L06 (PGT-121) (antibody): the IC50 (ug/mL), pseudovirus neutralization in experiment [5] and in experiment [6] was over 10 µg/mL each time. In addition, the IC50, pseudovirus neutralization in experiment [17] was over 10 µg/mL; in experiment [19] it was over 10 µg/mL; in experiment [20], over 50 µg/mL; in experiment [21], 0.019 µg/mL; in [22], 0.396 µg/mL; in experiment [23], 0.102 µg/mL. Also, the IC50, pseudovirus neutralization in experiment [24] is 0.005 µg/mL; in [25] it was 0.823 µg/mL; in experiment [26], 0.098 µg/mL; in [27], over 10 µg/mL. In experiment [18], this substance registered an IC50 (µg/mL), pseudovirus neutralization of 0.931 µg/mL.
